Measurements published in publication PMC4941327.

Biological target: mAb04-MICA antibody fusion protein (human) (UniProt Q29983)
Assay: SPR; Biacore X100; mAb04-MICA captured on a CM5 chip by anti-human IgG (Fc) antibody; soluble NKG2D injected at 7.8125-250 nM; HBS-EP pH 7.4; bivalent analyte model (the results say 2:1 binding model)

UniProt Q29983, sequence (Q29983 whole entry, looked up, the tested form may be a part): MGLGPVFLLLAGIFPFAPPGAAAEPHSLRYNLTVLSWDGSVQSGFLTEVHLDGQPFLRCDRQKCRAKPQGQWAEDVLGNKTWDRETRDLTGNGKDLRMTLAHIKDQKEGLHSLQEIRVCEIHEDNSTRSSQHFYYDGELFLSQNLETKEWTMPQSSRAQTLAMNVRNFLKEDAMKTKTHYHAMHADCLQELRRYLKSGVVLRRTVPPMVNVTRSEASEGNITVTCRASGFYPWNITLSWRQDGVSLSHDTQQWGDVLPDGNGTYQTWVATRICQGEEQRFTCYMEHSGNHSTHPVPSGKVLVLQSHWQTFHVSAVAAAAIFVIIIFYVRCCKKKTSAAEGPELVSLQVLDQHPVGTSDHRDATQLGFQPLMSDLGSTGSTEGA

soluble recombinant NKG2D (from UniProt P26718 1-216) (receptor)
Kd: 0.71 µM
koff: 188 s⁻¹
kon: 2.65e+08 M⁻¹ s⁻¹
